Experiment [1] deals with T1, A/South Carolina/1/1918 (H1N1) hemagglutinin ectodomain (Influenza A virus A/South …).
The target in experiment [2] is T1, A/South Carolina/1/1918 (H1N1) …. This is another data set of the same source.
Experiment [3] has the same target. This is another data set of the same source.
For experiment [4] the target is unchanged. The source holds these as a separate data set.

Where two headings read alike, the source gives them in different places.

B1: HB80.1 (Met26Thr, Asn36Lys) (designed binder)
chain: MASTRGSGRPWDFSENLAFELALAFTNKDTPDRWAKVAQYVSGRTPEEVKKHYEILVEDIKYIESGKVPFPNYRTTGGNMKTDEKRFRNLKIRLE
As to B1, the Kd in experiment [1] and in experiment [2] was 7.5 nM each time.

B2: HB36.1 (Asp47Ser) (designed binder)
chain: MSNAMDGQQLNRLLLEWIGAWDPFGLGKDAYDVEAEAVLQAVYETESAFDLAMRIMWIYAFAFNRPIPFPHAQKLARRLLELKQAASSPLPLE
For B2, the “fold increase in binding affinity against HB36” value in experiment [3] is approximately 40 fold. Besides, the Kd in experiment [1] was 5 nM; in experiment [4], 2 to 5 nM.

Usually Kd stands for a measure of binding affinity in units of concentration.

The values above are taken from US20150038408A1 (University of Washington, published 2015).
